These are literature values, as cited in PMC3025320.

In one series the target is C3d C3d (Homo sapiens) (UniProt P01024). Briefly: ITC. Background: ITC needs no label: the signal is the heat of the interaction.
The target in series [1] is C3d C3d (996-1303) (Homo sapiens) (UniProt P01024). Briefly: ITC.
Chain of C3d C3d (996-1303) (Homo sapiens) (P01024 996-1303): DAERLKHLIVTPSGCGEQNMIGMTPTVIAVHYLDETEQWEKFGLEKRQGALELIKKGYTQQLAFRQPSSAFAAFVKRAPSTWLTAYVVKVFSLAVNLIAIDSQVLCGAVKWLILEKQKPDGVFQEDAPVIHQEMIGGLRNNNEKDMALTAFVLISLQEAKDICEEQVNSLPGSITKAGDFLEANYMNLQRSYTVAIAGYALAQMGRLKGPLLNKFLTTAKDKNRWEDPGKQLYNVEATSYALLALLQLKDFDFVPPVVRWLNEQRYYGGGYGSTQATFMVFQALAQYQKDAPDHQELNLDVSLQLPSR

Chain of C3d C3d (Homo sapiens) (P01024 1002-1303): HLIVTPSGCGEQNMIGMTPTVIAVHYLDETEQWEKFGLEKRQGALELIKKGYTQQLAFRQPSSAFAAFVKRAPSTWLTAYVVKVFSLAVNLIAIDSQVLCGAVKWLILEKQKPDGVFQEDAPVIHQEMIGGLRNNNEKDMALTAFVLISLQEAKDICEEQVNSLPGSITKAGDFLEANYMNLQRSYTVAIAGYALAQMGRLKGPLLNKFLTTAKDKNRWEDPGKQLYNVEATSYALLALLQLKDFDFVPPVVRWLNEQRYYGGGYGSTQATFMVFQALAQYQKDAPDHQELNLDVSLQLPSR
Chain of Efb-C Efb-C (P68799 101-165): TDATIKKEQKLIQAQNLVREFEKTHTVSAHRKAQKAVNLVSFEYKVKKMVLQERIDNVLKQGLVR

As for Efb-C Efb-C (from UniProt P68799), in the series with C3d C3d (Homo sapiens), the Kd (usually the constant that tells how readily two partners part at equilibrium) was 0.002 µM. As for Sbi-IV domain IV (from UniProt A7X659), the dissociation constant Kd (with C3d C3d (Homo sapiens); in series [1]) was 0.36 µM each time. In the case of “Sbi-III–IV domains III-IV (from UniProt A7X659)”, the Kd in series [1] was 0.4 µM.

On to “Sbi-III-IV domains III-IV (from UniProt A7X659)”, for which the dissociation constant Kd with C3d C3d (Homo sapiens) is 0.4 µM.
